# Experimental data as given in publication PMC2275143 (Nucleic Acids Research, 2008).
# Biological target: the molecule itself
# Assay: AUC
protein,measurement,value
"Nep1 from Methanocaldococcus jannaschii (native protein) (enzyme, UniProt Q57977 2-205, looked up) TYNIILAKSALELIPEEIKNKIRKSRVYKYDILDSNYHYKAMEKLKDKEMRGRPDIIHISLLNILDSPINHEKKLNIYIHTYDDKVLKINPETRLPRNYFRFLGVMEKVLKGERNHLIKMEEKTLEDLLNEINAKKIAIMTKTGKLTHPKLLKEYDTFIIGGFPYGKLKINKEKVFGDIKEISIYNKGLMAWTVCGIICYSLSF",stoichiometry N,2
